Laboratory results reported in US20210032331A1 (PHANES THERAPEUTICS, published 2021).

Biological target: T1, human LAG-3(ECD)-mFc (human, UniProt P18627 23-450)
T1 construct: also called hLAG3-mFc; human LAG-3 extracellular domain (ECD) fused to mouse Fc; not shown: mouse Fc
T1 sequence: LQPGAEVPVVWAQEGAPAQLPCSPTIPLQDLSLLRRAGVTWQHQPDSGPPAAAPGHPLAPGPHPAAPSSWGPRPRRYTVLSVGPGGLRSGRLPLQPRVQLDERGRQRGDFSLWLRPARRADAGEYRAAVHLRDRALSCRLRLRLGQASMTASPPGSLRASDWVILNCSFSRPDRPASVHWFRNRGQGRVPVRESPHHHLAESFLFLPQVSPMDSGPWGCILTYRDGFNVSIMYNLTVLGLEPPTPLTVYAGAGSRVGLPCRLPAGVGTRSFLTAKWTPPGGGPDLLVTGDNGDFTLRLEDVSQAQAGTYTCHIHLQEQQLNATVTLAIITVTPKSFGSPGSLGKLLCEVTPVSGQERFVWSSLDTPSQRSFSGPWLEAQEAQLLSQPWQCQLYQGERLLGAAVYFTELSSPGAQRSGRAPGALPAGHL
Test: ELISA: chimeric IgG1 B12 with hLAG3-mFc in solution, captured on anti-human IgG, anti-mouse IgG-HRP
Procedure: FIGS. 5A-5D show the effect of competition peptides on LAG-3 binding to anti-LAG-3 mAbs. […] B5/IgG4 was preincubated with a competition peptide for 30 minutes. Then human LAG-3 extracellular domain (ECD) fused to mouse Fc (hLAG3-mFc) was added (the final peptide concentration was 600-fold that of hLAG3-mFc) and the mixture was incubated for 60 minutes before being added to an ELISA plate coated with anti-human IgG. The incubation was carried out at 4° C. overnight. After washing, the hLAG3-mFc bound to the immobilized B5/IgG4 on the ELISA plate was detected by adding anti-mouse IgG conjugated to horseradish peroxidase (HRP) and incubating for 60 minutes. Then, after washing, the ELISA was developed using One-step Detection Solution and measured as the absorbance at 450 nm.
Anti-human IgG in carbonate coating buffer was coated on an ELISA plate at 4° C. (50 μL/well at 1 μg/mL) overnight. […] The plate was washed and the binding of hLAG3-mFc to the immobilized anti-LAG-3 mAb was detected by adding anti-mouse IgG conjugated to horseradish peroxidase ([…]) (ThermoFisher Scientific, Cat#: A16084; Waltham, Mass.) and incubating for 60 minutes.

B1: B12 (human IgG1 heavy chain and kappa light chain chimeric) (antibody, V domains shown)
VH: EVKLLESGGSLVQPGGSLKLSCAASGFDFSRYWMSWVRQAPGKGLEWIGEINPDSSTINYTPSLRDEFIISRDNAKNTLFLQMSKVISEDTALYYCARITSGYYFDYWGQGTTLTVSS
VL: DVVMTQTPLSLPVSLGDQASISCRSSQTIVYSNGNTYLYWYLQKPGQSPKLLIYRVSNRFPGVPDRFSGSGSGTDFTLKISGVEAEDMGVYYCFQGTHVPFTFGSGTKLEMK
notes: Chimeric: mouse VH and VL with human IgG1 heavy chain and kappa light chain constant regions
Question: Does B1 bind?
Answer: binds
